In paper PMC3087504, “DNA Damage in Oocytes Induces a Switch of the Quality Control Factor TAp63α from Dimer to Tetramer” (Cell, 2011):

How the values were obtained:
[1] = biological target: the molecule itself; experiment: AUC; sedimentation velocity, 45,000 rpm, 4 μM protein, 4°C, 20 mM potassium phosphate pH 7.5, 200 mM NaCl, 2 mM dithiothreitol
[2] = biological target: the molecule itself; experiment: SEC; lysate of 16 ovaries of non-irradiated or γ-irradiated (0.52 Gy) P5 mice, Superose 6 PC 3.2/30, 4°C, 50 mM sodium phosphate, 100 mM NaCl, phosphatase inhibitors; fractions blotted with 4A4; dimer fraction 1.55 ml, tetramer fraction 1.3 ml
[3] = biological target: the molecule itself; experiment: SEC; lysate of ovaries of irradiated mice incubated with λ-Protein Phosphatase (30°C, 45 min, 1.25 mM MnCl2), then Superose 6 PC 3.2/30 and western blot

Row | Protein | stoichiometry N [2] | further results
1 | MBP-TAp63γ (natural protein, mouse, UniProt O88898-5 40-483, looked up, 193 amino acids less per monomer than TAp63α; cloned into pMAL-c4X; almost equal distribution between dimers and tetramers at 30 nM; source: E. coli (T7 express), purified (Ni-Sepharose, Amylose resin, SEC); not shown: MBP, N-terminal, kept) MSQSTQTSEFLSPEVFQHIWDFLEQPICSVQPIELNFVDEPSENGATNKIEISMDCIRMQDSDLSDPMWPQYTNLGLLNSMDQQIQNGSSSTSPYNTDHAQNSVTAPSPYAQPSSTFDALSPSPAIPSNTDYPGPHSFDVSFQQSSTAKSATWTYSTELKKLYCQIAKTCPIQIKVMTPPPQGAVIRAMPVYKKAEHVTEVVKRCPNHELSREFNEGQIAPPSHLIRVEGNSHAQYVEDPITGRQSVLVPYEPPQVGTEFTTVLYNFMCNSSCVGGMNRRPILIIVTLETRDGQVLGRRCFEARICACPGRDRKADEDSIRKQQVSDSAKNGDAFRQNTHGIQMTSIKKRRSPDDELLYLPVRGRETYEMLLKIKESLELMQYLPQHTIETYRQQQQQQHQHLLQKHLLSACFRNELVEPRGEAPTQSDVFFRHSNPPNHSVYP | – | stoichiometry N [1]: 4
2 | TAp63α in oocytes of non-irradiated mice (natural protein, UniProt O88898-1 40-680, looked up, endogenous murine TAp63α of oocytes; also called TAp63α (NIRR); source: endogenous, ovary lysate of non-irradiated P5 CD-1 mice) MSQSTQTSEFLSPEVFQHIWDFLEQPICSVQPIELNFVDEPSENGATNKIEISMDCIRMQDSDLSDPMWPQYTNLGLLNSMDQQIQNGSSSTSPYNTDHAQNSVTAPSPYAQPSSTFDALSPSPAIPSNTDYPGPHSFDVSFQQSSTAKSATWTYSTELKKLYCQIAKTCPIQIKVMTPPPQGAVIRAMPVYKKAEHVTEVVKRCPNHELSREFNEGQIAPPSHLIRVEGNSHAQYVEDPITGRQSVLVPYEPPQVGTEFTTVLYNFMCNSSCVGGMNRRPILIIVTLETRDGQVLGRRCFEARICACPGRDRKADEDSIRKQQVSDSAKNGDGTKRPFRQNTHGIQMTSIKKRRSPDDELLYLPVRGRETYEMLLKIKESLELMQYLPQHTIETYRQQQQQQHQHLLQKQTSMQSQSSYGNSSPPLNKMNSMNKLPSVSQLINPQQRNALTPTTMPEGMGANIPMMGTHMPMAGDMNGLSPTQALPPPLSMPSTSHCTPPPPYPTDCSIVSFLARLGCSSCLDYFTTQGLTTIYQIEHYSMDDLASLKIPEQFRHAIWKGILDHRQLHDFSSPPHLLRTPSGASTVSVGSSETRGERVIDAVRFTLRQTISFPPRDEWNDFNFDMDSRRNKQQRIKEEGE | 2 | –
3 | λ-phosphatase-treated TAp63α obtained from irradiated oocytes (natural protein, UniProt O88898-1 40-680, looked up, endogenous murine TAp63α of irradiated oocytes after dephosphorylation in the lysate; kept apart because it was first phosphorylated in vivo and then dephosphorylated; also called dephosphorylated TAp63α (IRR + λPP); source: endogenous, ovary lysate of irradiated P5 mice, treated with λ-Protein Phosphatase (30°C, 45 min)) MSQSTQTSEFLSPEVFQHIWDFLEQPICSVQPIELNFVDEPSENGATNKIEISMDCIRMQDSDLSDPMWPQYTNLGLLNSMDQQIQNGSSSTSPYNTDHAQNSVTAPSPYAQPSSTFDALSPSPAIPSNTDYPGPHSFDVSFQQSSTAKSATWTYSTELKKLYCQIAKTCPIQIKVMTPPPQGAVIRAMPVYKKAEHVTEVVKRCPNHELSREFNEGQIAPPSHLIRVEGNSHAQYVEDPITGRQSVLVPYEPPQVGTEFTTVLYNFMCNSSCVGGMNRRPILIIVTLETRDGQVLGRRCFEARICACPGRDRKADEDSIRKQQVSDSAKNGDGTKRPFRQNTHGIQMTSIKKRRSPDDELLYLPVRGRETYEMLLKIKESLELMQYLPQHTIETYRQQQQQQHQHLLQKQTSMQSQSSYGNSSPPLNKMNSMNKLPSVSQLINPQQRNALTPTTMPEGMGANIPMMGTHMPMAGDMNGLSPTQALPPPLSMPSTSHCTPPPPYPTDCSIVSFLARLGCSSCLDYFTTQGLTTIYQIEHYSMDDLASLKIPEQFRHAIWKGILDHRQLHDFSSPPHLLRTPSGASTVSVGSSETRGERVIDAVRFTLRQTISFPPRDEWNDFNFDMDSRRNKQQRIKEEGE | – | stoichiometry N [3]: 4
4 | phosphorylated TAp63α in oocytes of γ-irradiated mice (natural protein, UniProt O88898-1 40-680, looked up, phosphorylated after γ-irradiation; sites not stated, endogenous murine TAp63α of oocytes, phosphorylated after DNA damage; both dimer and tetramer fractions hold protein after irradiation; also called TAp63α (IRR); source: endogenous, ovary lysate of P5 CD-1 mice 6 hr after 0.52 Gy γ-irradiation) MSQSTQTSEFLSPEVFQHIWDFLEQPICSVQPIELNFVDEPSENGATNKIEISMDCIRMQDSDLSDPMWPQYTNLGLLNSMDQQIQNGSSSTSPYNTDHAQNSVTAPSPYAQPSSTFDALSPSPAIPSNTDYPGPHSFDVSFQQSSTAKSATWTYSTELKKLYCQIAKTCPIQIKVMTPPPQGAVIRAMPVYKKAEHVTEVVKRCPNHELSREFNEGQIAPPSHLIRVEGNSHAQYVEDPITGRQSVLVPYEPPQVGTEFTTVLYNFMCNSSCVGGMNRRPILIIVTLETRDGQVLGRRCFEARICACPGRDRKADEDSIRKQQVSDSAKNGDGTKRPFRQNTHGIQMTSIKKRRSPDDELLYLPVRGRETYEMLLKIKESLELMQYLPQHTIETYRQQQQQQHQHLLQKQTSMQSQSSYGNSSPPLNKMNSMNKLPSVSQLINPQQRNALTPTTMPEGMGANIPMMGTHMPMAGDMNGLSPTQALPPPLSMPSTSHCTPPPPYPTDCSIVSFLARLGCSSCLDYFTTQGLTTIYQIEHYSMDDLASLKIPEQFRHAIWKGILDHRQLHDFSSPPHLLRTPSGASTVSVGSSETRGERVIDAVRFTLRQTISFPPRDEWNDFNFDMDSRRNKQQRIKEEGE | 4 | –
